In the RNAGym collection of RNA variant scans (doi:10.7554/elife.80360):

B1: Hairpin Ribozyme (parent)
chain: GUCCUCUUUCACGUGCGCGUGAAAGAGAGAAGUGAACCAGAGAAACACACGUUGUGGUAUAUUACCUGGUA

Variants of: B1
Test: self-cleavage, relative activity (ratio to wild type); higher = more cleavage; co-transcriptional

Row | Variant | self-cleavage
1 | G15C C38U | 0.6
2 | C16A U53A | 0.936
3 | C16A U53G | 0.877
4 | G15U G25U | 0.778
5 | C16G G29A | 0.202
6 | C16G G29U | 0.0825
7 | C16U A31C | 0.165
8 | G15U C66U | 0.574
9 | G15C G54U | 0.647
10 | G17A G29C | 0.169
11 | C16G G68A | 0.243
12 | C16G G68U | 0.132
13 | G15U A61U | 0.182
14 | G15U A61G | 0.164
15 | C16U G54U | 0.82
16 | C16U G54C | 0.411
17 | G15C C50G | 0.184
18 | G15C C50A | 0.169
19 | G15C C50U | 0.47
20 | G17A C38U | 0.512
21 | G17A C38A | 0.169
22 | C16A A59U | 0.212
23 | G15U A31U | 0.232
24 | G15U A31G | 0.795

Row | Variant | self-cleavage
25 | G17A G51A | 1.06
26 | C16U A41U | 1.4
27 | C16A A22U | 0.816
28 | C16U G34A | 1.26
29 | C16U G34U | 0.885
30 | G15U G40C | 0.0954
31 | C16A G56C | 0.212
32 | C16A G19U | 0.862
33 | G17A A24G | 0.824
34 | G17A A39G | 0.319
35 | G15C U60G | 0.466
36 | G17A A45G | 0.15
37 | G17A A45U | 0.13
38 | C16G A61C | 0.2
39 | G15C G57A | 0.24
40 | G15U G27U | 0.35
41 | G15C C65A | 0.928
42 | C16A G54C | 0.432
43 | C16A G54U | 0.595
44 | G17A A44U | 0.183
45 | G15U C50U | 0.49
46 | G15U C46A | 0.167
47 | G15U A64U | 0.139
48 | G15U A39C | 0.7

Row | Variant | self-cleavage
49 | C16G G34C | 1.22
50 | C16G G21A | 0.515
51 | C16G G21C | 0.285
52 | C16A A36C | 0.399
53 | C16G A23G | 0.751
54 | C16U G69A | 0.301
55 | C16U G69U | 0.267
56 | G17A G25A | 0.587
57 | G17A G25C | 0.552
58 | G15C G42C | 0.369
59 | G15U A22C | 0.681
60 | G15U A22G | 1.12
61 | C16G G56C | 0.2
62 | G15C A59G | 0.104
63 | G15C A43G | 0.11
64 | C16A U33A | 0.17
65 | G15C G21A | 0.76
66 | C16A A64G | 0.455
67 | G17A A36C | 0.607
68 | G17A A36G | 1.17
69 | G17A A36U | 0.544
70 | G15C C16A | 1.1
71 | G15C G56A | 0.129
72 | G17A A61C | 0.199

Row | Variant | self-cleavage
73 | G17A A61U | 0.208
74 | G15C A41U | 1.28
75 | G15C A41G | 1.04
76 | G15C A41C | 1.28
77 | C16G G40U | 0.173
78 | C16G G40C | 0.143
79 | C16U A71G | 1.08
80 | G15C U52C | 1.05
81 | G15C U52A | 1.19
82 | C16A C37U | 0.519
83 | C16A C38G | 0.114
84 | G15U A44G | 0.0895
85 | G15U A44U | 0.174
86 | C16U G56U | 0.189
87 | C16U G56C | 0.127
88 | C16A G69C | 0.205
89 | C16G U63A | 0.15
90 | C16G U63G | 0.182
91 | C16U A36G | 1.34
92 | C16A G68A | 0.305
93 | G15U G29U | 0.124
94 | G15U U67G | 0.364
95 | C16U U63G | 0.195
96 | C16U U63A | 0.253

Row | Variant | self-cleavage
97 | C16A U63A | 0.132
98 | C16A U63G | 0.253
99 | C16A A24C | 0.71
100 | C16A A24G | 0.763
101 | C16A G42C | 0.304
102 | C16G U67G | 0.191
103 | C16G U67C | 0.155
104 | C16U C18U | 0.979
105 | G15C A30U | 0.293
106 | G17A A43U | 0.105
107 | C16G A26U | 0.293
108 | C16A C48A | 0.123
109 | C16A A49C | 0.0771
110 | G15C G25C | 0.687
111 | C16A G40A | 0.28
112 | C16A G40C | 0.157
113 | C16U U60G | 0.634
114 | C16U G68U | 0.329
115 | C16U G68C | 0.22
116 | C16U A44C | 0.0379
117 | C16U A44U | 0.154
118 | C16U A44G | 0.101
119 | G17A A49C | 0.243
120 | G17A A49G | 0.62

Row | Variant | self-cleavage
121 | C16G C46G | 0.183
122 | C16G C46A | 0.224
123 | C16G U58G | 0.749
124 | G17A G21A | 0.792
125 | G15C A44G | 0.146
126 | C16U C38A | 0.172
127 | C16A A35G | 1.06
128 | G15C A45U | 0.191
129 | G15C A45G | 0.194
130 | G15U G56A | 0.187
131 | G15C A47C | 0.295
132 | G17A C50U | 0.373
133 | C16U A64G | 0.505
134 | C16A C50A | 0.361
135 | C16A C50U | 0.309
136 | G15U C16G | 1.09
137 | C16G G42C | 0.152
138 | G17A A71G | 1.04
139 | G17A A71U | 0.868
140 | C16G A43U | 0.157
141 | C16U G42A | 0.225
142 | C16U G42C | 0.346
143 | C16U G42U | 0.34
144 | G15C U62A | 0.14

Row | Variant | self-cleavage
145 | G17A A64G | 0.615
146 | G17A A64U | 0.151
147 | C16A A39G | 0.243
148 | C16A A39U | 0.364
149 | C16A A31G | 0.536
150 | C16U U58G | 0.765
151 | C16G A28G | 0.959
152 | C16G A28U | 0.483
153 | C16A U55C | 0.288
154 | G17A G68A | 0.301
155 | G17A A31C | 0.144
156 | G17A G27A | 0.547
157 | G17A G27U | 0.324
158 | C16U U20A | 0.817
159 | C16U U20C | 0.86
160 | G17A A41G | 0.833
161 | G17A G19A | 0.962
162 | G17A G19C | 0.969
163 | C16A C46G | 0.143
164 | C16A C46A | 0.197
165 | C16A G21A | 0.67
166 | C16A G21C | 0.605
167 | C16U G25C | 0.63
